Assay results taken from the DeepSol protein solubility set.

Experiment: soluble on expression in E. coli; label from the status in PepcDB or PDB records

Sequence	soluble on expression in E. coli
MALNTNQLFAYLNRGDIAEFKFSPLFTTLFFPNVATFSTQNIMLDTLDIEEVTMSAFCSPMVGSQVQRDKGYETSTIKPGYMKPKHEIDPTKTIMRMAGEDPAQLNDPTYRRMRLITGNMRRQINAIKARVEWLAVNAVTTGKNIIEGEGIERYEIDWKIPEKNIIEQADGKKWSEQDKETHYPIYDIELYADQAGCPANVMIMGAEVWRTLRSFKKFRELYDLSRGSESAAELACKNLGEVVSFKGYLGDLALIVYSGKYTDSDGTEKYFLEPDLLVLGNTNNKGLVAYGAIMDQEAVRTGATQNMFYPKNWIEDGDPAIEYVQTHSAPQPVPADIRKFVTVKIA	not soluble
MGSDKIHHHHHHSCLDDDDSSSDSLVISTINLISPDSKDFYFTLDDGKTMFPSNGNGWISDKNKDGQRAFVIFKELEEPVKGYDYNIQVREIKEILTKEIVTMGEGENTEEKIGDDKINSTYMWITQDKKYLTIEFQYYGTHSEDKKHFLNLVINNKEAEPAADDANDEYIDLEFRHNDEGDTADRLGEGYISFKLDKIQDQMKGKKGLRIRVKTLYNGEKFYEVKFPSSN	not soluble
MGLPAHHIDAFLDRLRTAHYSEVSLRKKRRVLCAFSGWMKHRNIDLIDLDESVTARFMKRMIDASRDRVQRARPTLRQFLAYLRAEAIVCSPTLGSQSAIAHTYRRYLDYLRQDRGLAKNSLLVYGPFIRDFLDSHSAGDGSLLPDAFDAVTIRNHLLARSKGRSAEYTRLMAVALRSFCHFLFLRGDTARDLAGSVPSVRKWRQSTVPTFLTPEQQEALIASADRSTPTGLRDYAILLLLARLGLRAGEIIEIELDDIHWRSGELVVHGKGQMVEHVPLSSEVGAAIATYLRDGRGASASRRVFLRRLAPRVGLAGPAAIGKIVCQAFARVGFRPACRGAAHLFRHGLATTMIRHGASMAEIAEVLRHRSPDSTAIYAKVAFEDLRGVARSWPTAGGAILEHHHHHH	soluble
GPGSMMTEATTTPVETPIVCNIRDAAGLEGKLVTFKGWAYHIRKARKTLIFVELRDGSGYCQCVIFGKELCEPEKVKLLTRECSLEITGRLNAYAGKNHPPEIADILNLEMQVTEWKVIGESPIDLENIINKDSSIPQKMQNRHIVIRSEHTQQVLQLRSEIQWYFRKYYHDNHFTEIQPPTIVKTQCEGGSTLFKLQYFNEPAYLTQSSQLYLESVIASLGKSFCMLSSYRAEQSRTVRHLAEYLHLEAELPFISFEDLLNHLEDLVCTVIDNVMAVHGDKIRKMNPHLKLPTRPFKRMTYADAIKYCNDHGILNKDKPFEYGEDISEKPERQMTDEIGCPIFMIHFPSKMKAFYMSKVPGHPDLTESVDLLMPGVGEIVGGSMRIWNYDELMGAYKANGLNPDPYYWYTQQRKYGSCPHGGYGLGVERLVMWLLGEDHIRKVCLYPRYLERCEP	soluble
MLVKPPYSYIALITMAIQNAPEKKITLNGIYQFIMDRFPFYRENKQGWQNSIRHNLSLNECFVKVPRDDKKPGKGSYWTLDPDSYNMFENGSFL	soluble
AEKRNIFLVGPMGAGKSTIGRQLAQQLNMEFYDSDQEIEKRTGADVGWVFDLEGEEGFRDREEKVINELTEKQGIVLATGGGSVKSRETRNRLSARGVVVYLETTIEKQLARTQRDKKRPLLHVETPPREVLEALANERNPLYEEIADVTIRTDDQSAKVVANQIIHMLESN	soluble
MGDKGTRVFKKASPNGKLTVYLGKRDFVDHIDLVEPVDGVVLVDPEYLKERRVYVTLTCAFRYGREDLDVLGLTFRKDLFVANVQSFPPAPEDKKPLTRLQERLIKKLGEHAYPFTFEIPPNLPCSVTLQPGPEDTGKACGVDYEVKAFCAENLEEKIHKRNSVRLVIRKVQYAPERPGPQPTAETTRQFLMSDKPLHLEASLDKEIYYHGEPISVNVHVTNNTNKTVKKIKISVRQYADICLFNTAQYKCPVAMEEADDTVAPSSTFCKVYTLTPFLANNREKRGLALDGKLKHEDTNLASSTLLREGANREILGIIVSYKVKVKLVVSRGGLLGDLASSDVAVELPFTLMHPKPKEEPPHREVPEHETPVDTNLIELDTNDDDIVFEDFARQRLKGMKDDKEEEEDGTGSPRLNDR	soluble
MISLTQQVSAVRLDTHKSDTFEQNDLVLDNTGAVLSGSRDALIRRLVPTRDFCPDESYIFSLLVNIRTFISPHELMQKIVQYCMFAQNADSHNFAKEGRGRMFAHILRLCSEWATNIPYDFKTEYMRTRLNELLRLCAVDKTYQQKTTELQSTLRSSLNKLDRYEKAVANLQKALSENTNLPEQSDSMTGLFVLCNDAKTVAQQLTHIEMERFSMVGVDEIVQSLASDPLSEIGRHSKNKEGTISSISFYIEWFNRLSAFAAIEVLKQTKKRNRVAVFEFMIDIAKECCEIGNFNSMMAIVAGLSLPAVSRLKKTWCRVEKAKLEILQHQLDPSGNFLSYRATIKAAQWRADSARGNQQKIVIPFFVLLLKDLFLIYHGHPRILPNAHLNFMAFNQLAEQLRDVIQWKSTVCTFEKNPQVLQYLLITSVSGEKDSMLMSFECEPPESSSERDQHKKLKGGK	not soluble
GSSGSSGGEIIEGCRLPVLRRNQDNEDEWPLAEILSVKDISGRKLFYVHYIDFNRRLDEWVTHERLDLKKIQFPKKEAKTPSGPSSG	soluble
MWINKVIKKRFETDIVQHVHIAKGTAMFQGVRLAVRCFVVDGVLIDTGAKSMENEFTSFFQQQDIDQVVITHFHEDHTGCAAFLQRSMGLPIYMNEPMIEYCRQKADYPLYRKIFWGKRDPFAAKPIGATFSSRNATWDVIPTPGHAIDHVVFLNRETGQLFSGDLYCQEKTKVILREEDIPTIIASLQHVLTYDFGDVFCAHAGYLPNGREALQRKLDYLLELQGTIIDLYEKGTPPKQIQALLFPKKYPIIFFSGGEWDSLHIVRSVIRDYEAKQASLEHHHHHH	soluble
MHSHLIPGIDDGSKSMEESLSLIQEFKKLGYKKIITTPHIMGDFFKNSKETIFPGLIELRASIAEAGIDIEIEAAAEYYLDEWFIEKLERNEPLLKLGGNYVLFETSYMNRPTQLHQAIFLMRSLGYIPVLAHPERYTYLYEDFKLFKEIYEMDVLFQINLNSLAGYYSKTAKLYAEKLIDNNMVDFVGTDCHGQRHIDVLAKVKVSNYYQKLQKLSILNNTLIS	not soluble
MGSDKIHHHHHHMTSYVLTVSCPSKRGIVAALSGYLAEMGCNIVDSSQFDDLDTDRFFMRVSFISEQGASREKIEAGLAPIVDNFQMEIGLYDSTERVKVLLMVSRFGHCLNDLLYRWKIGALPIDIVGVVSNHFDYQKVVVNHDIPFHHIKVTKDNKPQAEAQLMELVQQTGTELIVLARYMQVLSDAMCQKMSGKIINIHHSFLPSFKGANPYKQAFERGVKLIGATAHYVTADLDEGPIIEQDVARVTHAQNAEDYVSIGRDVESQVLARAIHAHIHHRTFINGNKSVVFPASPGSYASERMG	not soluble
MMTDLSTPDLPRMSAAIAEPTSHDPDSGGHFGGPSGWGGRYVPEALMAVIEEVTAAYQKERVSQDFLDDLDRLQANYAGRPSPLYEATRLSQHAGSARIFLKREDLNHTGSHKINNVLGQALLARRMGKTRVIAETGAGQHGVATATACALLGLDCVIYMGGIDTARQALNVARMRLLGAEVVAVQTGSKTLKDAINEAFRDWVANADNTYYCFGTAAGPHPFPTMVRDFQRIIGMEARVQIQGQAGRLPDAVVACVGGGSNAIGIFHAFLDDPGVRLVGFEAAGDGVETGRHAATFTAGSPGAFHGSFSYLLQDEDGQTIESHSISAGLDYPGVGPEHAWLKEAGRVDYRPITDSEAMDAFGLLCRMEGIIPAIESAHAVAGALKLGVELGRGAVIVVNLSGRGDKDVETAAKWFGLLGND	soluble
QTITIKGQVLDEKKQPVSYASVVISTDSLSKKDISYAVTDEHGQFRIGQLSAIPDKRWIHVRSIGYLGFHKQISLRAVKSPLDITLTEDTKELEEVVVVARARDAYAKGDTIVFNSKNYTLGNERNLGDVVKKMPGMEVDQTGNISYQGKKIGKVLVDGQDILSSSSGVAMNTLPPDFANSIELLSNYTDGDIAHAFKAEEQLALNLKSNKKVALSGSFEGGGGLKDKFISKASLITVLPKISASTIINANNTGEAVFSIQDYMSNIIDFESIRSGASTQTSLSLSPEEQQLLLPPTNEHARTAGLANINISWTPHSSYKLRASTLFNKGKSEGAHTKTDTYTLPENYFTNISTGTADKETQLVSQYLSQKWIPSRFFSVSAKTKIDIRNHNADNIYANTFNDNHIHALEKPKNHFSGIKQDIEMKWLLSKGLLFGGGSFVFNKGKINSDIYTDVLLLPLPHINGNSIYPYFHEHIKKDMEKGFNAYVGGMYPVLNNIYLRGEFSMSMNWNELKMAYPTSINEETADLRVFRPYISLMKNKGVFRFNIGSYFSSYRQKTSPELLREKSLFYIEPHASIELVMSNQHRLMLSVSEAVSPSTIDYFSQQILAKGYNNLQLPSKLSNPFAKRFKGNLSYAYFSLFNRLSMYGNLSYIKDRDTHITVTTSKGLLISNFYQDGGWSNTLRTNAYLSKGIGTLPLDIKLSGKYTLSKHNLMRVDKEDELINKRVDAKLDLISRLYQSPVNFEIGVRFSRLDQKFTYSNIHSWNQE	not soluble
TPDFGFTLRGNFTYSKNKVQNWEQAYLEYPYLEYNNFPYNSIRGYQAVGLFKDEDDIKYSPKQTFGEVMPGDIKYKDINGDGMVDKLDMVPLTHSTYPLLMYGLGAEIRYKNLTLGVLFKGTGKTSFFYVGQKTTVNDETRLNGMGYMPFFEGNTGNVLTLAANPVNRWIPRDYAIAHGIDPSLAENPNARFPRLQYGNNSNNSQLSTFWQGDSRYIRLQEITLNYHLATAFLRRIGVSSLDIQFVGNNLYVWDKVKLFDPEQARWNGRVYPIPSTYSLQLYVNL	not soluble
MGSDKIHHHHHHMPQISVTILRGADTIGGSCVKINHGEDSIVLDYGAPLMDSTGVSIDADLASSPSMENGILLDIQQQDTRPPLAYLLSHAHPDHYGLLRSLPKSSNIYLSDSSYSMMTIGNLFYPEALRFSSLEQCRQFTPGKPFQVGPFTVTAFLMDHSAFGACSLLIEVDGKQVYYTGDFRGHGRKSQVSDYIYANVKQPDLMLLEGTTLNGGHSLQFPTEVSVEDAMVSALNEGDGPAFVSASGSNIDRIVSLYNATKRTGKELVIDLYQLYLLEALKKYSPSLPPHKNDHLKVIFPQFQLAIIKSEFGDDFLRYSNRHVNLSKLKGTNYVFRLSPYAMTPYLDSFKEKGVKPKLIYSMWLGYQSKQPKFAEIANKYQESWQYIHTSGHAYLEHLQSFAGNISPKVLVPIHTLNRDKFSSYFDNVRIVENGESIVCE	not soluble
MHKSIAVFEVEGGNDKQFNGHRKDTLPIVDAIKEKGWHAEVVFYRPEWSEGLFEYVSQNFDGYISRVNPGNIPGGEKGYFDLLTKLSEAGLVGMSTPAEMMAYGAKDALVKLNDTDLVPSDTAAYYDVETFHNTFPTSLSYGERVLKQNRGSTGSGIWRVQLEDKELAASVAPGTALPLNTKLRCTEAVDNHTEIRELGEFMDFCDQYIVGDNGMLVDMRFMPRIVEGEIRILMVGPHPVFVVHKKPAAGGDNFSATLFSGAKYTYDKPEAWQELVDMFAAARPVIAEKLGGDNIPLIWTADFMLADGENGEDTYVLGEINCSCVGFTSELDMGIQELVAQEAVERVEKKHA	not soluble
MSEDGEISLSPNSAALMDGLDDFIIDKNCSGIIPNEDLERETPSADDDAEVKTSSNWAKNMRKRMFGEQCDEPEESEKKRRRTNCCFNCRGGDHSIAQCPEPKNFAEIRKNKLEFMNDKQQQHQPTGRISQVTEQQQEAKFKPGRLSQNLRKALSLGPDDIPEWVYRMRRLGFYRGYPPGYLRKSLKREFATLKIYSEDHNQEEVDNDDDEEARPAPTIQSEKVHFYMGFNKTYGALRDRERGRFEVPPFDIFCEMLQTEVARDHEGTEKIRIREERHQRSELRKIREQQKEEEEQQQRDSAEKVEKEVTVDQTISEVAAAAAAVEEKPGTPEPVGRMGESISEFIGTPIFSRRDVTGTWIEDTVPSLEAFSVGIVPFEAKEEEKPRGIFKKIMSTLKGITGRNSGDDEMKKKE	not soluble
